Target: CXCR4-Tango
Experiment: Tango (TEV-cleavage luciferase reporter of arrestin recruitment); Tango-Trio, basal: HTTL-B1 / HTTL-B2 cells transfected with GPCR-Tango constructs, with against without cumate (30 µg/mL) or cumate dose-response, no agonist; in Fig. 7 also with inverse agonists/antagonists at EC80

“β-arrestin2-TEV219 (from UniProt P32121 1-409) (natural protein)” gave a fold change in constitutive β-arrestin-2 recruitment (with against without cumate) of 67 fold.
